Measured values reported in PMC12396215.
pKd: −log10 of the molar value.

How the values were obtained:
[1] = molecular target: extracellular domain of EpCAM (EpCAM ECD) (UniProt P16422); assay: other fluorescence titration; Kd of the probe for EpCAM ECD calculated from the increase of SiP fluorescence (Figure S10)
[2] = molecular target: extracellular domain of EpCAM (EpCAM ECD) (UniProt P16422); assay: fluorescence increase of the DARPin-SiP conjugate on adding the antigen (plate reader); probe pretreated with DTT; probe 500 nM, EpCAM ECD 1 uM
[3] = molecular target: extracellular domain of EpCAM (EpCAM ECD) (UniProt P16422); assay: fluorescence increase of the DARPin-SiP conjugate on adding the antigen (plate reader); conjugate 500 nM (not pretreated with DTT), EpCAM ECD 1 uM; fold activation = fluorescence at 31 min divided by that just before EpCAM ECD

Sequence of UniProt P16422 (P16422 24-265): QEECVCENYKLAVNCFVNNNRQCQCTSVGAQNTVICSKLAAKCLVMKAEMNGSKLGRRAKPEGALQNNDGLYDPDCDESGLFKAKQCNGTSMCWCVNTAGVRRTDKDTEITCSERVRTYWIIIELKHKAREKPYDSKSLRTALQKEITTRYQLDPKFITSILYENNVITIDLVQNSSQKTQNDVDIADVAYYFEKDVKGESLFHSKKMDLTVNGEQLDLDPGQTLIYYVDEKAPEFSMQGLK

pKd [1]: 6.62
fold activation of SiP fluorescence on adding EpCAM ECD [2]: > 12 fold
fold increase of SiP fluorescence on adding EpCAM ECD [3]: 7 fold
Substance: Ec1 K152C-5-Gly SiP conjugate (designed binder)
